Experimental findings from PMC5895073, “Cell polarity protein Spa2 coordinates Chs2 incorporation at the division site in budding yeast” (PLoS Genetics, 2018) are described below.

The target of this experiment is T1, Strep-tag-Chs2-V377I-215-629 (S. cerevisiae, UniProt P14180 215-629, V377I).
T1 construct: Chs2 (chitin synthase II), S. cerevisiae, residues 215-629 with the hypermorphic change V377I; also called Strep-tag-Chs2-215-629-V377I; source: E. coli Rosetta, in cell extract
T1 sequence (looked up): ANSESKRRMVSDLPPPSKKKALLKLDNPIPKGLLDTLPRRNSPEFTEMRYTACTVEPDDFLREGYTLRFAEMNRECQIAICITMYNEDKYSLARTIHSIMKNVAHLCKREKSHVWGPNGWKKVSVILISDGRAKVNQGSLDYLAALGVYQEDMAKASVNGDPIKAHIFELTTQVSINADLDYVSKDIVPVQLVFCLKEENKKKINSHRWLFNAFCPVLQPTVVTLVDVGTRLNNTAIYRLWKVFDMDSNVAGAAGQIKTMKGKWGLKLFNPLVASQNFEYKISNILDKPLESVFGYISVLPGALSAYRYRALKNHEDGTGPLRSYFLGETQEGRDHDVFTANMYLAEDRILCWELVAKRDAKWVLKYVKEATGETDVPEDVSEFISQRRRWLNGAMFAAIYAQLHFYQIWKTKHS
Put plainly: pull-down; pairs of E. coli cultures mixed, one cell extract; Strep-tagged protein isolated on Strep-Tactin Superflow resin, eluted with 2.5 mM d-desthiobiotin; immunoblot with anti-Strep and anti-His. Particulars: partners not purified.

B1: 6His-tagged-Inn1 (natural protein, S. cerevisiae, UniProt P53901 1-409, looked up)
chain: MSEEVWNGNQGILSVYVSKARDLPNLNKLDKQNVMLRLRIAHMTRASNTLHRAGQNPVFHYLEKFDITPEIKPLMYVEVYCDRRKKSPLPIGRCEIDLLNAIRADPKEGYCTWYELKRSGDEFAGTIFIELTFTPKVPRLNRDDLNKEMDRLDSSMAMRPIPPLPTESEYDYVHGSTMRQITPQCVSTSHEDKDEGQPYRNGNVFSMSSKSDTAVLANSNDPIILPPTFSASMGTTSTLETNDTAISNTSNTKFHFANLRKLKEKINIFKNPDSSTNNCQNESNKVDIEALQKAIGVTSLSYDEDDDDDDENDAFYSSSHRVSHNYNQPPLPPIPTRDDMSNYSSSRNTPLVRRDRPSRLDSSSPNSHPHPSGLNSPKLPPLPTTSNSNFNSRKNSMSPTRKRPPPRLS
notes: Inn1, S. cerevisiae; also called 6His-Inn1; source: E. coli Rosetta, in cell extract
Turning to B1, the “amount of Inn1 co-purified, fold over that with Strep-tag-Chs2-215-629” value was approximately 3 fold.
